± gives the uncertainty stated by the source.

This series in a line: amyloid nucleation score (Sup35N fusion, yeast selection) (log enrichment); library NNK2; higher = more nucleation; inactive = no reads after selection. A digest of the protocol:
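Peptides of 20 random codons fused to Sup35N were expressed in psi-negative yeast, induced 24 hours with 100 μM copper sulfate, then grown 7 days at 30°C on medium lacking adenine and uracil. Input and output plasmid inserts were Illumina-sequenced. Nucleation score is the DiMSum log enrichment of output over input reads, centred on the mode score of non-aggregating sequences, excluding sequences with under 100 input reads. Random libraries had three technical output replicates.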
SFFNRESGIWWRGSSWFVLV showed an amyloid nucleation score of -0.711 ± 0.48.

In turn, SFFVRKLIGNSYHN had an amyloid nucleation score of 1.89 ± 0.17.

SFGKVYFN: the amyloid nucleation score was 0.617 ± 0.53.

For the substance SFHIVKDYNSDMYYFFNELV, the amyloid nucleation score result was “inactive”.

SFIRMWKDRLYHRLVALNRV came in with an amyloid nucleation score of 1 ± 0.48.

Consider SFITDRADCRQWLLRNNIFA, for which the amyloid nucleation score was -0.771 ± 0.64.

As for SFKFFTVQF, the amyloid nucleation score amounted to 6.66 ± 0.088.

In turn, SFKRFQ came in with an amyloid nucleation score of -0.347 ± 1.1.

SFKSDSFTDYYLIDLAITRG came in with an amyloid nucleation score of -0.046 ± 1.

The substance SFMGEK registered an amyloid nucleation score of -0.453 ± 0.74.

On to SFNEWLSR, for which the amyloid nucleation score is -0.391 ± 0.55.

SFNVF had an amyloid nucleation score of -0.094 ± 0.6.

In turn, SFPLSADEFNCSI gave an amyloid nucleation score of -0.314 ± 0.55.

As to SFPVWPVMYGGNCFSCFSLG, the amyloid nucleation score was determined as 9.094 ± 0.063.

Substance SFRFMFEVLSVVTYSTRGCA registered an amyloid nucleation score of 2.92 ± 0.067.

Substance SFRKILESWKDAYLYDPALT yielded an amyloid nucleation score of 0.113 ± 1.1.

Regarding SFSKNALDNRFWGRFSFFFG, the amyloid nucleation score stood at 1.3 ± 0.34.

In turn, SFVLSSHKA showed an amyloid nucleation score of 0.175 ± 0.61.

With SFVNFCRLRASLCAVAISTT, the amyloid nucleation score entry is “inactive”.

On to SFYWYRCVDIADSTSKYDGF, for which the amyloid nucleation score entry is “inactive”.

SGCWIGRFLSSGVSMKVHVS: the amyloid nucleation score came to 1.23 ± 0.4.

In turn, SGDMCFWFSQTRHGLFKGIL showed an amyloid nucleation score of -0.019 ± 0.37.

Take SGFNNISMKQLWWT: the amyloid nucleation score result was “inactive”.

SGGHNIVLMI: the amyloid nucleation score entry was “inactive”.

As to SGHISYG, the amyloid nucleation score is 0.192 ± 0.56.

SGIAWSLVNVGLGYHYMQGG showed an amyloid nucleation score of 0.178 ± 0.39.

SGKTMEVIYNEGSCFCGFLT returned an amyloid nucleation score of 8.09 ± 0.081.

As to SGLCSCTVACVGFVHFDARV, the amyloid nucleation score was determined as 5.38 ± 0.084.

The substance SGMISRRHAYGAEVELVGSN had an amyloid nucleation score of 1.17 ± 0.43.

In turn, SGPVVQDKVYHRVNYF displayed an amyloid nucleation score of -0.369 ± 1.1.

With SGSKGRASVNIIDR, the amyloid nucleation score came to 0.131 ± 1.

SGSMKCPSYRYYCPQNIFCT displayed an amyloid nucleation score of 6.43 ± 0.08.

SGSRMFCVRHMIMSGGVLGS showed an amyloid nucleation score of -0.451 ± 0.54.

With SGTALTRAESSTLMFNRNYR, the amyloid nucleation score is 0.106 ± 0.41.

In turn, SGVLHRCEIPVLRACRLLL displayed an amyloid nucleation score of 0.425 ± 0.37.

With SGVLVCVWTRS, the amyloid nucleation score is -1.24 ± 0.49.

On to SGWQFQSWRVQRMWLVELSC, for which the amyloid nucleation score amounted to 0.494 ± 0.49.

SGYMMNFAA showed an amyloid nucleation score of 1.24 ± 0.32.

Consider SGYVIHLVDDKALHTCDRNQ, for which the amyloid nucleation score was 0.294 ± 0.18.

In turn, SGYVLNAELNAASLLMCGIG displayed an amyloid nucleation score of 0.252 ± 0.74.

SHCCGFLRGGWNRAQFGYRT had an amyloid nucleation score of 3.38 ± 0.049.

For the substance SHCPVRYMVGIS, the amyloid nucleation score was -1.02 ± 0.78.

In turn, SHCSLEDG yielded an amyloid nucleation score of 1.22 ± 0.12.

Turning to SHEMGGFHNSNL, the amyloid nucleation score is -1.56 ± 1.

Consider SHFRLCGGVWSSGLMCHGCF, for which the amyloid nucleation score was found to be 1.61 ± 0.55.

Regarding SHGVLRMAKIRSWGFDVTVM, the amyloid nucleation score came out at 0.02 ± 0.74.

SHISDVSKD showed an amyloid nucleation score of 0.679 ± 0.26.

In the case of SHLPVWTSKNARSRCDP, the amyloid nucleation score amounted to 0.602 ± 0.25.

The substance SHMIRYRSVDRVHGLFHPQS returned an amyloid nucleation score of -0.232 ± 0.37.

The substance SHYTMALSRDIGYGDITKSD had an amyloid nucleation score of -0.675 ± 1.1.

Take SICGEVYWWNLG: the amyloid nucleation score was -0.978 ± 0.28.

For the substance SIFFARLVVEKSMIQLG, the amyloid nucleation score came out at 0.21 ± 0.41.

With SIGIRIEVLHAYLQTVISNA, the amyloid nucleation score is -0.639 ± 1.

For SIGTGRAESL, the amyloid nucleation score was 0.359 ± 0.57.

In the case of SIIIVKFLIGWRILWRSLTY, the amyloid nucleation score result is “inactive”.

In the case of SIKCEFELIDLTSQAPCEGQ, the amyloid nucleation score is 0.611 ± 0.5.

Consider SILIFTLTCSDRNW, for which the amyloid nucleation score is -0.245 ± 0.76.

With SINWAFDYVSVLVGFD, the amyloid nucleation score result was “inactive”.

SIPIIETGVWYVNNRVLMN showed an amyloid nucleation score of -1.43 ± 0.54.

On to SIRARGLAMRSYSPT, for which the amyloid nucleation score is -0.093 ± 0.55.

SIRLYHYKFALRERKV came in with an amyloid nucleation score of 5.345 ± 0.053.

In the case of SIRSS, the amyloid nucleation score entry is “inactive”.

On to SISRVVTWNRLRVKACRWAG, for which the amyloid nucleation score was determined as 0.601 ± 0.28.

The substance SISSGFFWKEAIKGSAVSLW registered an amyloid nucleation score of 0.36 ± 0.8.

The substance SIVLMCVLMYPPIDVSSWLS had an amyloid nucleation score of 4.415 ± 0.042.

As for SIYRFDLTYPNRHHCYNVVI, the amyloid nucleation score is -0.184 ± 1.1.

SKAECLMH: the amyloid nucleation score was -0.547 ± 1.1.

In turn, SKCCASLTQLITTGVLAYRA had an amyloid nucleation score of 0.489 ± 0.49.

SKCNGFVVALMLVFTSSELD: the amyloid nucleation score result was “inactive”.

Take SKFHIVIWSSAFFGCNCRLA: the amyloid nucleation score was 6.78 ± 0.079.

Regarding SKFYNSYSYFTLFVVVLMFD, the amyloid nucleation score is -0.936 ± 1.1.

SKLFESLVTCLIKGLHVVNN displayed an amyloid nucleation score of 0.479 ± 0.74.

In turn, SKLIVWLTDLASSVSRMLLV registered an amyloid nucleation score of 4.09 ± 0.071.

Substance SKLMQVRRGVLSGYLSESDE registered an amyloid nucleation score of -0.149 ± 0.55.

For SKYKRLYVGTNDIIQLDWSN, the amyloid nucleation score came out at 3.16 ± 0.068.

On to SLCLRRCMKNKSKQMTMVWR, for which the amyloid nucleation score is -0.247 ± 0.53.

For the substance SLEFCLVWFSSMRRMCV, the amyloid nucleation score was determined as 0.673 ± 0.48.

SLFARRMWGGTVKWYNDRTY came in with an amyloid nucleation score of -0.632 ± 0.76.

As to SLFTYGVISDHMGNMVPWND, the amyloid nucleation score is -0.352 ± 1.1.

As to SLKEESFESVMNVG, the amyloid nucleation score is 3.87 ± 0.059.

Regarding SLKRKGLVHTPCIFRVRCLT, the amyloid nucleation score was 0.554 ± 0.81.

SLLDWYKSRQSLMGAMLHNC came in with an amyloid nucleation score of -1.12 ± 0.44.

SLLSPHPLD returned an amyloid nucleation score of 0.203 ± 0.63.

SLLYQQDGCNLVVFYQFLV gave an amyloid nucleation score of 2.52 ± 0.13.

As for SLMKKTAGLFNVYVPSIGSS, the amyloid nucleation score came out at 0.378 ± 0.37.

Turning to SLNILDCFTCGYMTSDISVA, the amyloid nucleation score was -0.674 ± 0.32.

On to SLPRWTVCVCVQADGYWMWV, for which the amyloid nucleation score came to 7.12 ± 0.084.

For the substance SLQVDRNWGGS, the amyloid nucleation score was 0.105 ± 0.55.

Substance SLSFCVLEVSTCGCMSGYVG registered an amyloid nucleation score of 10.24 ± 0.05.

Turning to SLSGVV, the amyloid nucleation score result was “inactive”.

Substance SLSSGHETVR yielded an amyloid nucleation score of 3.69 ± 0.15.

Take SLSVAWKWGGRSDN: the amyloid nucleation score was determined as 6.213 ± 0.06.

Take SLVLLNRSANWIDLLNKQQD: the amyloid nucleation score is 3.62 ± 0.12.

Consider SLWLSEVVCMDTVHQEIIMA, for which the amyloid nucleation score was -0.163 ± 0.42.

For the substance SLYLRSRSRISFMGVGQKEL, the amyloid nucleation score stood at 3.28 ± 0.11.

In turn, SMFIVHSCSTWLTNNGLNHM returned an amyloid nucleation score of 3.19 ± 0.16.

On to SMGLSC, for which the amyloid nucleation score entry was “inactive”.

Take SMGMLP: the amyloid nucleation score was -0.641 ± 1.1.

As for SMGSPETC, the amyloid nucleation score is -0.47 ± 1.1.

On to SMGYYDLFELYPNRHGYYGF, for which the amyloid nucleation score entry was “inactive”.

On to SMLEDRYHSALTENRRDWKQ, for which the amyloid nucleation score is 0.564 ± 0.28.

SMLGKRIFYRCSRLMHNF registered an amyloid nucleation score of -0.175 ± 0.27.

As to SMNSLSIVYLDYASGAWMDL, the amyloid nucleation score is -0.127 ± 0.49.

As for SMNVRTKLDWSTTRVDSGLR, the amyloid nucleation score was determined as 0.662 ± 0.21.

Turning to SMQCPLAAQTDM, the amyloid nucleation score was -0.301 ± 0.45.

Substance SMQFFFRS came in with an amyloid nucleation score of 6.51 ± 0.072.

The substance SMQFLCYKKLC displayed an amyloid nucleation score of -0.565 ± 1.1.

For SMQKG, the amyloid nucleation score result is “inactive”.

Consider SMRDEVYIRFFMNRILSVRS, for which the amyloid nucleation score was -0.803 ± 1.

Substance SMSKYAISYKLVVRKKYRSG yielded an amyloid nucleation score of 1.83 ± 0.11.

Substance SMTVKDSGFMSIFGFSTVRL yielded an amyloid nucleation score of -0.854 ± 0.48.

As to SMWWY, the amyloid nucleation score is -0.505 ± 1.1.

Take SMYLCDK: the amyloid nucleation score is -0.621 ± 0.48.

SMYSLTVVNLRVRFLVVWGW yielded an amyloid nucleation score of 0.615 ± 0.5.

For the substance SNAVLWNTGIFIKKYC, the amyloid nucleation score is -1.38 ± 0.64.

The substance SNEHKYFQNIATNVLV had an amyloid nucleation score of -0.371 ± 0.64.

Regarding SNEPIGTASLHDYVGPRVST, the amyloid nucleation score was -0.332 ± 0.44.

For the substance SNFLVYS, the amyloid nucleation score is -0.636 ± 0.61.

SNHVKCGWICKFSLRIQSVY returned an amyloid nucleation score of 0.129 ± 0.65.

The substance SNSGINHIRCCLYPLFYLIM displayed an amyloid nucleation score of 2.35 ± 0.13.

Substance SNSLQFYDLKSCDWGVWRCE yielded an amyloid nucleation score of 4.768 ± 0.038.

Take SNSYGGDTQRY: the amyloid nucleation score was -0.517 ± 0.33.

In turn, SNVLFLVLHRGRVKAVSRNE came in with an amyloid nucleation score of -0.783 ± 1.

For SNVLTVIVCYTKAWINKSFM, the amyloid nucleation score entry is “inactive”.

SNVWAQ had an amyloid nucleation score of 0.571 ± 0.57.

Turning to SNWFLWHTSTRFMIKENIMY, the amyloid nucleation score turned out to be 0.516 ± 0.74.

SPCLVLL came in with an amyloid nucleation score of 0.2 ± 0.28.

On to SPCMCGYITINSLRPLLTFS, for which the amyloid nucleation score was determined as 5.797 ± 0.03.

In turn, SPFRTDHVF yielded an amyloid nucleation score of -0.311 ± 0.33.

As to SPFTTSRDFMHRTPLLCDTC, the amyloid nucleation score is 1.32 ± 0.33.

The substance SPGIARDLANRILVTIRWVS registered an amyloid nucleation score of 1.25 ± 0.32.

In the case of SPGYTMKGFRWWLLSILGAR, the amyloid nucleation score result is “inactive”.

In turn, SPRLAGVWVH returned an amyloid nucleation score of -0.669 ± 0.63.

SPSSQSKVISCLRVS registered an amyloid nucleation score of 0.611 ± 0.81.

SPVVADQPWCSI showed an amyloid nucleation score of 0.321 ± 0.64.

Substance SPWGPLLAFTSKTNPIQWMT came in with an amyloid nucleation score of -0.196 ± 0.46.

With SQALCDGALYTHFAISSIDR, the amyloid nucleation score entry was “inactive”.

The substance SQFAVRKEGTDSEEFLKSVV registered an amyloid nucleation score of -0.197 ± 0.48.

SQHGVKNLSSRFESLIA: the amyloid nucleation score was -0.197 ± 0.79.

With SQHSVARIANGLLTSGTMVL, the amyloid nucleation score worked out at 0.875 ± 0.36.

The values are drawn from the supplement of paper PMC12042874.
